This is an account of results in patent US20260193375A1 (NORMUNITY, published 2026).

In assay [1] the target is T1, rat LY6K (R&D Systems) (rat).
T1 construct: also called rLY6K
In words: ELISA, coated antigen, IgG1 at 10 ug/ml. For orientation: An ELISA detects its analyte on a solid surface through an enzyme-linked reagent.

Assay [2] has as its target T2, Human LY6K (R&D Systems) (human, UniProt Q17RY6 18-138, limits assumed).
T2 construct: Bought from R&D Systems, coated on ELISA plates; also called hLY6K
T2 sequence: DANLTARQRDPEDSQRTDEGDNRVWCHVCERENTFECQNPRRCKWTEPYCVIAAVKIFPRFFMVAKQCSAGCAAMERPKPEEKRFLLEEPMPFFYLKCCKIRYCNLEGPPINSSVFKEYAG
The assay is described as follows: ELISA, coated antigen, IgG1 at 10 ug/ml.

Assay [3] concerns the target T3, human LY6E (R&D Systems) (human, UniProt Q16553 21-101, limits assumed).
T3 construct: also called hLY6E
T3 sequence (looked up): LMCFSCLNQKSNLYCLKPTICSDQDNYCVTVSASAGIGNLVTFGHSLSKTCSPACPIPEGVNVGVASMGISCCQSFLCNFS
The assay is described as follows: ELISA, coated antigen, IgG1 at 10 ug/ml.

Assay [4] deals with T4, cynomolgus monkey LY6K (R&D Systems) (cynomolgus monkey).
T4 construct: also called cyLY6K
In words: ELISA, coated antigen, IgG1 at 10 ug/ml.

The target in assay [5] is T5, Ly6D.
T5 chain: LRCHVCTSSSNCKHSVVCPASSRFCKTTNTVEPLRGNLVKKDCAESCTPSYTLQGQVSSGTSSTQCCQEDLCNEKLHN
In words: ELISA, antigen coated on the plate, antibody as human IgG1, anti-human F(ab)2 HRPO.

The target of assay [6] is T6, Ly6H.
T6 chain: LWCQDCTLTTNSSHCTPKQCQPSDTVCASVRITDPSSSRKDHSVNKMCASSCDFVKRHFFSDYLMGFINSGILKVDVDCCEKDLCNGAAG
The description is as above.

In assay [7] the target is T3, human LY6E (R&D Systems). The description is as above.
In assay [8] the target is cyLY6K-mFc (cynomolgus monkey). In words: SPR (Carterra LSA), mAb captured on anti-human IgG-Fc, antigen as analyte.
The target of assay [9] is T7, hLY6K-mFc (human, UniProt Q17RY6 18-138).
T7 construct: not shown: mFc
T7 sequence: T2 sequence
Described as above.

The target of assay [10] is T8, hLY6K-his (human, UniProt Q17RY6 18-138, limits assumed).
T8 construct: not shown: his tag
T8 sequence: T2 sequence
The assay is described as above.

Assay [11] has as its target T9, cell-surface anchored LY6K (human, UniProt Q17RY6 18-138).
T9 construct: the cell is named under assay; also called LY6K on target cells
T9 sequence: T2 sequence
In words: flow cytometry on target cells, MFI fitted in Prism. On the technique in general: A flow cytometer gives signals particle by particle.

The target of assay [12] is T10, recombinant human LY6K (Wuxi) (human, UniProt Q17RY6 18-138).
T10 construct: Limits of the construct not clearly stated; also called Human LY6K (Wuxi LY^KGLY138(1-38TR)_8His)
T10 sequence: T2 sequence
The assay is described as follows: ELISA, LY6K coated at 2 ug/mL, HRP-labelled mAb titrated.

For assay [13], the target named is T10, recombinant human LY6K (Wuxi). The assay is described as follows: capture ELISA (MSD): antibody coated as capture at 2 µg/mL, recombinant human LY6K titrated, sulfo-tagged polyclonal anti-hLY6K (AF6648) for detection; EC50 is the LY6K concentration.

For orientation: Kd means a measure of binding affinity in units of concentration. A word on the EC50: it is the midpoint of the concentration-response curve.

Positions count from the first letter of the chain named.

B1: anti-LY6K antibody 3785 (antibody, V domains shown)
VH: QVQLQQSGPGLVKPSQTLSLTCAISGDSVSSNSAAWNWIRQSPSRGLEWLGRTYFRSKWNNDYTLSVKNRITINPDTSKNHFSLQLNSVTPEDTAVYYCAGGGYCNRTYCPDVFDIWGQGTMVTVSS
VL: DIQMTQSPSSLSASVGDRVTFTCRSSQSISSYLNWYQQKPGKAPNLLIYVASTLQSGVPSRFSGSGSGTDFTLTISSLQPEDFATYYCQQSYSIPLTFGGGTKVEIK
B1: the “% of maximum of commercial anti-LY6K mAb on human LY6K” value (“% of maximum … on human LY6K” for short) in [1] came to 2.5%; in assay [2], 43.7%; in assay [3], 4.5%; in assay [4], 57.2%. Moreover, the binding result in assay [5], in [6] and in [7] was “no binding (tested: 10 µg/ml)” throughout. The Kd in assay [8] was 1.39 nM; in assay [9] it was 0.263 nM; in assay [10] it was 7.48 nM.

B2: anti-LY6K antibody 3705 (antibody, V domains shown)
VH: EVQLVESGGGLVHPGRSLRLSCAASGFTFDDYAMHWVRQAPGKGLEWVSGISWKNGKIDYADSVKGRFITSRDNAKNSLYLQMNSLRTEDTALYYCAKDRIEMTFDIWGQGTMVTVSS
VL: DIVMTQSPLSSPVTLGQPASISCRSSQSLEHSNGNTYLSWLQQRPGQPPRLLIYKISNRFSGVPDRFSGSGAGTDFTLKISRVEAEDVGVYYCMQTTQFPLTFGGGTKVEIK
In the case of B2, the “% of maximum … on human LY6K” value stood at 0% in assay [1], 102% in [2], 7.8% in assay [3] and 1.1% in assay [4]. For the same molecule, the results for the Kd in [9] and in [10] were 0.185 nM and 6.31 nM, respectively. Moreover, the EC50 in [11] amounted to 58.1 nM; in assay [12], 16.2 nM.

B3: anti-LY6K antibody 3074 (antibody, V domains shown)
VH: B2 VH with N55T, G56N, I69T, L93F, I101R
VL: B2 VL with S7T, V90I, T96A
Regarding B3, the “% of maximum … on human LY6K” value is -1.2% in assay [1], 89.2% in assay [2], 3.4% in assay [3] and -0.2% in assay [4]. The binding result in assay [5], in assay [6] and in [7] was “no binding (tested: 10 µg/ml)” throughout. Also, the EC50 in assay [13] is 0.315 µg/mL; in [11] it was 164 nM; in assay [12], 5.2 nM. The Kd amounted to 0.164 nM in [9] and 3.23 nM in [10].

B4: anti-LY6K antibody 3741 (antibody, V domains shown)
VH: EVQLVESGGGLVKPGGSLRLSCAASGFTFSSYSMNWVRQAPGKGLEWVSSISSSSNYIYYVDSVKGRFTTSRDNAKNSLYLQMNSLRAEDTAVYYCARQEATGNNYYYYYMDVWGKGTTVTVSS
VL: DIQMTQSPSSLSASVGDRVTITCRASQSISNYLNWYQQNLGKAPKVLIYAASSLQSGVPSRFSGSGSGTDFTLTISSLQPEDFATYYCQQTYSTPITFGQGTRLEIK
For the molecule B4, the “% of maximum … on human LY6K” value in assay [1] was -1.6%; in [2] it was 67.6%; in [3] it was 3.1%; in [4] it was 66.4%. The binding result in [5], in assay [6] and in assay [7] was “no binding (tested: 10 µg/ml)” in each case. Also, the values for the EC50 in assay [13] and in [12] were 0.0568 µg/mL and 3.08 nM, respectively. Moreover, the equilibrium dissociation constant (Kd) came out at 0.379 nM in assay [8], 0.0505 nM in assay [9] and 5.66 nM in assay [10].

B5: anti-LY6K antibody 3101 (antibody, V domains shown)
VH: EVQLVESGGGLVQPGRSLRLSCAASGFTFDDYAMHWVRQTPGKGLEWVSGITWKSGNIGYADSVKGRFTISRDNAKNSLYLQMNSLRAEDTALYYCAKDTEAGLDYWGQGTLVTVSS
VL: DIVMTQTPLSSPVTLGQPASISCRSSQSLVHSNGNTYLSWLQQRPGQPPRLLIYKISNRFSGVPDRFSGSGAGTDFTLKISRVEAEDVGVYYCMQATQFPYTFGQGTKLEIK
On to B5, for which the “% of maximum … on human LY6K” value came out at 0.6% in assay [1], 94.9% in [2], 2.4% in [3] and 3% in [4]. The concentration giving a half-maximal response (EC50) in assay [13] was determined as 0.163 µg/mL. The Kd worked out at 0.0264 nM in assay [9] and 1.83 nM in assay [10].

B6: anti-LY6K antibody 3048 (antibody, V domains shown)
VH: B5 VH with T40A, N57T, T100S, E101R, A102T, T111A
VL: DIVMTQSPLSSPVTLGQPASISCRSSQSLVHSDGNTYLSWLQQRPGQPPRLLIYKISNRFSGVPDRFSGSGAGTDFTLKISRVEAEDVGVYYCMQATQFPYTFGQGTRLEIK
In the case of B6, the “% of maximum … on human LY6K” value in assay [1] stood at 1.5%; in assay [2] it was 81.2%; in assay [3], 2.5%; in assay [4], 0.1%. For the same molecule, the Kd amounted to 0.0428 nM in [9] and 4.7 nM in assay [10]. Moreover, the EC50 is 3.33 nM in assay [11] and 2.65 nM in assay [12].

B7: anti-LY6K antibody 3481 (antibody, V domains shown)
VH: B5 VH with P14S, T40A, S55D, G56V, N57T, R87G, E101S, A102D
VL: B2 VL with S7T, E30V, A85T, V90I, T96A, T97I, L101Y, G105Q, V109L
Turning to B7, the “% of maximum … on human LY6K” value is 0.9% in assay [1], 99.4% in assay [2], 2.7% in assay [3] and 0.2% in assay [4]. In addition, the Kd in [9] is 0.0157 nM; in assay [10], 1.19 nM. For the same molecule, the EC50 in [11] stood at 2.84 nM; in assay [12] it was 2.08 nM.

B8: anti-LY6K antibody 3035 (antibody, V domains shown)
VH: EVQLVESGGGLVQPGGSLKLSCAASGFTFSDSTLHWVRQASGKGLEWVGRIRSKANSYATAYAASVKGRFTISRDDSKNTAYLQMNSLKTEDTAVYYCHNWSYGYWGQGTLVTVSS
VL: QTVVTQEPSLTVSPGGTVTLTCASSTGAVTSYYYPNWFQQKPGQAPRTVIYSTTNKHSWTPARFSGSLLGGKAALTLSGVLPEDEADYYCLLFYGGAYVFGTGTKVTVL
Consider B8, for which the “% of maximum … on human LY6K” value in [1] amounted to 1%; in assay [2] it was 65.2%; in assay [3], 5.6%; in assay [4], 71.4%. The binding result in [5], in assay [6] and in assay [7] was “no binding (tested: 10 µg/ml)” each time. Besides, the concentration for a half-maximal effect (EC50) was 0.168 µg/mL in assay [13] and 2.86 nM in assay [12].

B9: anti-LY6K antibody 2660 (antibody, V domains shown)
VH: EVQLVESGGGLVKPGGSLRLSCAASGFTFSDVWMSWVRQAPGKGLEWVGRIKSKTDGGRIDYAAPVKGRFTISRDDSKNTLYLQMNSLKTEDTAVYYCTTVPYSDYWGQGTLVTVSS
VL: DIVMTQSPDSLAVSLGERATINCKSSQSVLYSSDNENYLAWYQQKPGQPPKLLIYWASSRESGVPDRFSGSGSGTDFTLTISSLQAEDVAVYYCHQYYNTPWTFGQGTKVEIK
With B9, the “% of maximum … on human LY6K” value in [1] was -0.1%; in [2] it was 95.1%; in assay [3] it was 3.1%; in assay [4] it was 106%. The binding result in assay [5], in assay [6] and in assay [7] was “no binding (tested: 10 µg/ml)” throughout. For the same molecule, the concentration giving a half-maximal response (EC50) in assay [13] was 0.0756 µg/mL; in assay [11] it was 0.364 nM; in [12], 1.57 nM. Further, the Kd in assay [8] amounted to 0.0518 nM; in assay [9], 0.00702 nM; in assay [10] it was 3.59 nM.
